Experimental data published in patent publication US5723127.

Target: B7 (cell surface glycoprotein, CD28-ligand B7) (Homo sapiens (Human)) (UniProt P33681)

IFN-γ production in PBMC stimulated with IL-12 alone (RIA): > 5 fold
Substance: CTLA-4Ig (chimeric recombinant soluble B7-ligand) (from UniProt P16410) (Fc fusion)
